Three molecules from patent publication US20170183645A1 can be followed below.

Where “and” joins values, the source holds several entries; their conditions need not be identical. Equal entries are not always repeated.

Test [1] addresses H1N1 influenza neuraminidase (influenza H1N1 (strain not stated)).
The target in test [2] is influenza H5N1 neuraminidase (H5N1 A/Thailand/1(KAN-1)/2004) (influenza A virus H5N1 A/Thailand/1(KAN-1)/2004).
The target in test [3] is H3N2 influenza neuraminidase (influenza H3N2 (strain not stated)).

B1: Bivalent homodimer of humanized anti-Flu neuraminidase VHH (clone Flu h27-8GL.h27-8GL) (VHH)
chain: QVQLVESGGGLVQPGGSLRLSCAASGGTFSSYVMGWFRQAPGKGLESVASITRDGDTTFYADSVKGRFTISRDNSKNTLYLQMNSLRAEDTAVYYCAAAVQYGTLWSRQYDYWGQGTLVTVSSAHHSEDPSSKAPKAPMAQVQLVESGGGLVQPGGSLRLSCAASGGTFSSYVMGWFRQAPGKGLESVASITRDGDTTFYADSVKGRFTISRDNSKNTLYLQMNSLRAEDTAVYYCAAAVQYGTLWSRQYDYWGQGTLVTVSS
For B1, the ELISA reactivity compared to control protein (BSA) in test [1] was 2.44 and 1.31; in test [2] it was 3.73 and 2.15; in test [3], 1.67 and 1.13.

B2: Anti-Flu neuraminidase VHH (clone Flu 27-8) (VHH)
VHH: QVQLVESGGRLVQAGGSLRVACVASGGTFSSYVMGWFRQAPGKERESVASITRDGDTTFYADSVKGRFTIARDNAKNTVYLQMNSLQPEDTGVYYCAAAVQYGTLWSRQYDYWGQGTQVTVSS
Regarding B2, the ELISA reactivity compared to control protein (BSA) is 1.89 in test [1], 2.48 in test [2] and 1.08 in test [3].

B3: humanized VHH h27-8GL (monovalent) (VHH)
VHH: QVQLVESGGGLVQPGGSLRLSCAASGGTFSSYVMGWFRQAPGKGLESVASITRDGDTTFYADSVKGRFTISRDNSKNTLYLQMNSLRAEDTAVYYCAAAVQYGTLWSRQYDYWGQGTLVTVSS
On to B3, for which the ELISA reactivity compared to control protein (BSA) in test [1] is 1.62 and 1.21; in test [2] it was 2.27 and 1.78; in test [3], 1.34 and 1.09.
